Test results as given in EP1165781B1 (ELI LILLY AND COMPANY, dated 2007).

T1: FLINT (FAS Ligand Inhibitory Protein), mature human FLINT (human, UniProt O95407 30-300)
T1 construct: also called mature FLINT; native FLINT
T1 sequence: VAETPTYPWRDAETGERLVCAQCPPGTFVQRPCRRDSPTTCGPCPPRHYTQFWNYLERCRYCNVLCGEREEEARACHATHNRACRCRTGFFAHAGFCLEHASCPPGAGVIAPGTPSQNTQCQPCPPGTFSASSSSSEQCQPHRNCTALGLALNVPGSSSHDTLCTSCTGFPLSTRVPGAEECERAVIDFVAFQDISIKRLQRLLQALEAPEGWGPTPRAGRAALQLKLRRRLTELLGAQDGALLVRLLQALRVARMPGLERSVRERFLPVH


Tests used:
[1] = biological target: FasLigand (monomer) (Homo sapiens (Human)) (UniProt P48023); experiment: SPR (Biacore 2000), FasL amine-coupled to CM5 chip, Fas in solution
[2] = biological target: T1, FLINT (FAS Ligand Inhibitory Protein), …; experiment: SPR (Biacore 2000), FasL amine-coupled to CM5 chip, FLINT in solution

Sequence of Fas/Fc chimera (R&D Systems) (Fc fusion) (P25445 26-173, change not shown): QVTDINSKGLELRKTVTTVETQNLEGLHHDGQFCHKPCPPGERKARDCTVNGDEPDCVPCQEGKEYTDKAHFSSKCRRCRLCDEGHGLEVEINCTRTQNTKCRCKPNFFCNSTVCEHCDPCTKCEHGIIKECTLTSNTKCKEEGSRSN

Kd [1]	Kd [2]	Molecule
162 nM	–	Fas/Fc chimera (R&D Systems) (Fc fusion)
–	113 nM	FasLigand (monomer) (ligand, Amine-coupled through lysines to a CM5 chip., Amine-coupled to a CM5 chip; also called Fas Ligand (Kamiya Biomedical Company)) QLFHLQKELAELRESTSQMHTASSLEKQIGHPSPPPEKKELRKVAHLTGKSNSRSMPLEWEDTYGIVLLSGVKYKKGGLVINETGLYFVYSKVYFRGQSCNNLPLSHKVYMRNSKYPQDLVMMEGKMMSYCTTGQMWARSSYLGAVFNLTSADHLYVNVSELSLVNFEESQTFFGLYKL
